We go through two substances from US10245299B2, “Autoassembling peptides for the treatment of pulmonary bulla” (3-D MATRIX, LTD., priority 2014, dated 2019).

Data set [1] can be described thus: Gelation kinetics of pH adjusted peptides, time sweep with DMEM. The format is physicochemical. As for the experimental part: The effect of pH level on the properties of gelation kinetics was evaluated to identify optimized pH levels for the peptides as described herein. Fast gelation kinetics of PuraMatrix® and other peptides within body fluid may generally improve its function and response time for various clinical applications. The pH level may impart response time to begin gelation when treated with simulated body fluid including but not limited to DMEM. […] A fast response time of PuraMatrix® and other peptides within body fluid may generally improve its function and response time for various clinical applications.
Time sweep tests were performed at 1 rad/sec and at 1 Pa with 20 mm plates and 500 μm gap distance. During time sweep test of PuraMatrix® 2.5% solution, DMEM was added into the chamber surrounding the measuring plates to soak PuraMatrix® solution at 0 time point. The results are shown in FIG. 9A for PuraMatrix® 2.5% solution.
Time sweep tests were performed at 1 rad/sec and at 1 Pa with 20 mm plates and 500 μm gap distance. During time sweep test of IEIK13 1.5% solution, DMEM was added into the chamber surrounding the measuring plates to soak IEIK13 1.5% solution at 0 time point and continuously data was recorded. The results are shown in FIG. 9B for IEIK13 1.5% solution.

Data set [2] is described as follows: Rheology of peptides mixed with cation/anion solutions. The class given is physicochemical. How it is done: In a rheological comparison of 2.5% RADA16 and 2.5% RADA16+NaCl, KCl, and CaCl2, solutions of 0.5% RADA16 mixed with 0.005, 0.05, 0.125, 0.25, 0.5, and 1 M NaCl, KCl, and CaCl2 were prepared. The anion, chloride (Cl−), was kept the same to observe the effect of the cations, sodium (Na+), potassium (K+), and calcium (Ca2+). FIG. 21 provides a basic understanding of how varying the cations of a salt solution effects the viscoelastic properties and the stiffness of self-assembling peptides. […] This should be because Ca has […] higher ionic strength than Na and K at the same molar concentrations. Therefore, influence of salts on the peptide solution is more related to their ionic strength rather than their molar concentration, as shown in FIGS. 17-18 and Table 2a-c. In some embodiments, there is a correlation between the properties of the peptide solutions with salts based on the concentration of the salts.
Rheological measurements of stiffness of 2.5% RADA16 and 2.5% RADA16+0.25 M CaCl2 was evaluated.
Rheological measurements of reversibility of 0.5% RADA16 solution with +0.125, 0.25, and 0.5 M CaCl2 were evaluated. Solutions of 0.5% RADA16 mixed with 0.125, 0.25, and 0.5 M CaCl2 were prepared. The structure of the self-assembled peptide solution were disrupted thoroughly by application of mechanical stress through vortexing and sonication. The mixtures were placed at room temperature for 48 hours to allow self-assembly to take place. […] FIG. 23a presents raw rheological data of the peptide solution with salts and the perturbed peptide solution while FIG. 23b provides a comparison of stiffness of the control peptide solution and the perturbed peptide solution.
Rheological measurements of gelation kinetics of 0.5% RADA16+NaCl, KCl, and CaCl2 were evaluated. A solution of 0.5% RADA16 was prepared and gelation kinetics were observed by treatment with several cations (e.g. Na, […], K) and anions (e.g. Cl, CO3, PO4, SO4). It was determined how long it will take for the peptide mixtures to gel and how to control that gelation time by varying the cation/anion type and concentration. […] In vivo and in vitro qualitative experiments and the resulting observations were supportive of these conclusions.
The two gels were: (1) a combination of the self-assembling peptide with a well-known cation/anion solution, Ringer's Solution (pH 5.3), used in the medical field and (2) a combination of the self-assembling peptide with a well-known contrast agent, indigo carmine, which is a dye solution containing sulfate (anion) and sodium (cation) ions. Indigo carmine contains indigoindisulfonate sodium (C16H8N2Na2O8S2), water, and sodium citrate […] for pH adjustment. Using indigo carmine powder, a 1% solution was prepared for use in experimentation. This corresponds to 10 mg/1 ml of water. The concentration of indigo carmine solution used in experimentation was 0.00585% in water.
The rheological comparisons of these mixtures and the visualization of the gels can be observed in FIG. 24a-24c. […] The concentration of the contrast agent or cation/anion mixture and peptide hydrogel that were mixed were based on an understanding of using cations and anions as described herein. […] FIG. 24C presents a comparison of stiffness of RADA16 and RADA16 mixed with Ringer's Solution.

In another data set the test system is pulmonary bulla. The data set can be described thus: Filling of pulmonary bulla cavity through connecting bronchioles before collapse. The settings on record: 1.0% RADA16 with 0.00585% indigo carmine. How it is done: A method for pulmonary bullae treatment using peptide hydrogel systems distinct from the method discussed in Example 19 was tested. Here, the pulmonary bullae are generally filled prior to collapse.
The pulmonary bulla cavity was filled with 1.0% RADA16 through the connecting bronchioles using an endotracheal tube inserted through the primary bronchus and into the lung. The bulla was then collapsed to remove the pocket of trapped air. 1.0% RADA16 mixed with 0.00585% indigo carmine was used here for visualization of the hydrogel spreading into the bullae cavity.

Data set [3] in a line: Rheological properties (storage moduli) of 1% peptides before and after DMEM treatment for 2 minutes. The format is physicochemical. The settings on record: peptides 1%, compared between peptides. As for the experimental part:
The effects of Dulbecco's modified Eagle's medium (DMEM) (pH 7.4) on the rheological properties of IEIK13, KLD12, and PuraMatrix® were evaluated on a rheometer (AR500, TA Instruments) with 40 mm plates. DMEM is generally a cell culture medium that contains 6.4 g/L of NaCl, 3.4 g/L NaHCO3 (sodium bicarbonate), minor amounts of other salts, various amino acids, and 4.5 g/L of glucose. The pH level of DMEM is generally 7.2±0.2 and the osmolality is 335±30 mOsm/Kg H2O; both measurements are close to human physiological fluids such as blood.
Peptide solutions (1%) were kept at 4° C. for at least 48 hours before testing. To perform the experiment, 1 mL of peptide solution was gently pipetted and placed on the plate of the rheometer. 2 mL of DMEM solution was gently added around the peptide solution. The peptide solution was treated with DMEM for two minutes, then the media was removed, and the plates were placed at a measuring geometry gap at around 450 μm. Measurements were performed at 37° C. after 2 min of relaxation time. Frequency tests were performed from 1 rad/s to 100 rad/s at 1 Pa of oscillation stress.
The rheological properties of the peptides (1%) were compared before and after DMEM treatment for 2 minutes, as shown in FIG. 1A. […]

[4] abbreviates: with pH adjustment, PuraMatrix® 2.5%, IEIK13 1.5% solution.

Regarding “Arg-Ala-Asp-Ala-Arg-Ala-Asp-Ala-Arg-Ala-Asp-Ala-Arg-Ala-Asp-Ala [PuraMatrix®]”, the “storage modulus response on DMEM addition” value in data set [1] (setting [4]) is reported as “immediate storage modulus increase”. Moreover, the “gelation kinetics by cation/anion type” value in data set [2] (0.5% RADA16) is “Chlorine showed the quickest gelation and sulfate showed the slowest gelation”. The reversibility after perturbation entry in data set [2] (0.5% RADA16 with CaCl2 within the optimal salt concentration range, vortexing and sonication, 48 hours at room temperature) was “remained reversible”. For the same substance, the “stiffness with added CaCl2” value in data set [2] (2.5% RADA16 vs 2.5% RADA16 with CaCl2) is recorded as “noticeable increase in stiffness”. Further, the “effect of cations on stiffness” value in data set [2] (RADA16 mixed with 0.005-1 M NaCl, KCl, and CaCl2, same molar concentrations) was “Ca provided the best enhancement of stiffness”. The “mechanical properties of mixed gel” value in data set [2] (RADA16 mixed with Ringer's Solution (pH 5.3)) is on record as “A stiffer gel with faster gelation kinetics that maintains reversibility”. Moreover, the “filling of bullae cavity through the connecting bronchioles” value in the data set with pulmonary bulla is “completely fill the bullae cavity”.
“Ile-Glu-Ile-Lys-Ile-Glu-Ile-Lys-Ile-Glu-Ile-Lys-Ile [IEIK13]”: the “storage modulus response on DMEM addition” value in data set [1] (setting [4]) and in data set [1] (without pH adjustment) was “immediate storage modulus increase” each time. Besides, in data set [3], the “fold increase of storage modulus after DMEM treatment” value was “lower-fold increase of storage modulus than weaker peptide solutions”. Moreover, the “mechanical properties of mixed gel” value in data set [2] (1.5% IEIK13 mixed with 0.00585% indigo carmine) was “maintains stiffness, reversibility, and gelation kinetics”.
